Assays:
[1] = biological target: SARS-CoV2 S蛋白, 奥密克戎 (Omicron:BA.1), on pseudovirus (SARS-CoV2); test: cell-based or functional assay
[2] = biological target: SARS-CoV2 S蛋白, 拉姆达 (Lambda:C.37), on pseudovirus (SARS-CoV2); test: cell-based or functional assay

B1: 全人源单克隆抗体YK-CoV2-03 (fully human anti-SARS-CoV2 monoclonal antibody, whole IgG) (antibody, V domains shown)
VH: EVQLQESGGGLVQPGGSLRLSCAASGLTVSRNYMTWVRQAPGKGLEWVSLIYAGGSTYYADSVKGRFTISRDNSKNTLYLQMNSLGAEDTAVYYCARDLVYYGMDVWGQGTTVTVAS
VL: DIQMTQSPFSLSASVGDRVTITCRASQGISSYLAWYQQKPGKAPKLLIYAASTLQSGVPSRFSGSGSGTDFTLTISSLQPEDFATYYCQHLNSDRYTFGQGTKLEI
Q: Which pseudovirus neutralisation IC50 (luciferase RLU, 293T-hACE2 cells) [1] does the source give for B1 here?
A: 0.32 mg/L

Q: And the pseudovirus neutralisation IC50 (luciferase RLU, 293T-hACE2 cells) [2]?
A: 0.0209 mg/L

Source: patent CN114656556A
